PMC3564036

Substrate: Nc1ncnc2c1ncn2[C@@H]1O[C@H](COP(=O)(O)OP(=O)(O)O)[C@@H](O)[C@H]1O
Test: purified protein
Assay type: biochemical, Homo sapiens
Settings: Mg2+

B1: PPIP5K2 (Homo sapiens) (protein)
chain: MSEAPRFFVGPEDTEINPGNYRHFFHHADEDDEEEDDSPPERQIVVGICSMAKKSKSKPMKEILERISLFKYITVVVFEEEVILNEPVENWPLCDCLISFHSKGFPLDKAVAYAKLRNPFVINDLNMQYLIQDRREVYSILQAEGILLPRYAILNRDPNNPKECNLIEGEDHVEVNGEVFQKPFVEKPVSAEDHNVYIYYPTSAGGGSQRLFRKIGSRSSVYSPESNVRKTGSYIYEEFMPTDGTDVKVYTVGPDYAHAEARKSPALDGKVERDSEGKEVRYPVILNAREKLIAWKVCLAFKQTVCGFDLLRANGQSYVCDVNGFSFVKNSMKYYDDCAKILGNIVMRELAPQFHIPWSIPLEAED
- Km: 5.2 ± 1.5 µM
- kcat: 0.002 s⁻¹
- kcat/Km: 370 M⁻¹ s⁻¹
